Among the data in US7202329 are β-galactosidase activity, two-hybrid liquid culture assay (fold over background) values, retold here.

This assay concerns the target yeast two-hybrid activation domain-Tsg101 construct (full-length Tsg101) (human) (UniProt Q99816). Kind of assay: cell-based or functional assay.

yeast two-hybrid activation domain-Tsg101 construct (full-length Tsg101) (human), sequence (Q99816 whole entry, the tested form may be a part): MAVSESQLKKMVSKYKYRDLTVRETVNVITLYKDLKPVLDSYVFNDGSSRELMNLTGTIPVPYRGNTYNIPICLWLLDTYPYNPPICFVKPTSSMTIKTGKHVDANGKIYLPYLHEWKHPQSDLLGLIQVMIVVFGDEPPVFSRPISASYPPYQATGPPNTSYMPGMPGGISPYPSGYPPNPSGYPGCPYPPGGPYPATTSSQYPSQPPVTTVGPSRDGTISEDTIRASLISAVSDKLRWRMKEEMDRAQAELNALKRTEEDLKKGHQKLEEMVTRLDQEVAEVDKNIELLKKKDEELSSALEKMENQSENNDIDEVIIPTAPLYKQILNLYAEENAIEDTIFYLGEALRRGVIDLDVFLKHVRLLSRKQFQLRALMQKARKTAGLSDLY

As to “yeast two-hybrid DNA binding domain-HIV1 GAGp6 construct, wild type (from UniProt P04386 1-147; P12493 449-500)”, the β-galactosidase activity, two-hybrid liquid culture assay (fold over background) was greater than 300.
